Laboratory results taken from patent US8735553 (BEIGENE SWITZERLAND, dated 2014).
Residue numbers refer to the chain shown, from its start. Where two headings read alike, the source gives them in different places. Blank lines part the entries; values can stand above or below the binder they belong to.

Experiments:
[1] = target: T1, human FcγRI (human, UniProt P12314 16-374); test: flow cytometry, FcγR+ HEK293 cells
T1 construct: whole, on cells; also called FcγR1
Protocol: (§1) Binding of various IgG4 mutants to FcγRs was determined by flow cytometry. In brief, a series of HEK293 transfectants expressing human FcγRs were established. These transfectants expressed FcγRI, FcγRIIA, FcγRIIB or FcγRIIIA Multi-subunit FcγRs (i.e., FcγR1 and FcγRIIIA) were co-expressed with FcRγ. Polymorphic variants (i.e., FcγRIIA H131 and R131, FcγRIIIA F158 and V158) were also included.

[2] = target: T2, human FcγRIIIA (F158) (human, UniProt P08637 17-254); test: flow cytometry, FcγR+ HEK293 cells
T2 construct: whole, on cells
Protocol: as §1

[3] = target: T3, human FcγRIIIA (V158) (human, UniProt P08637 17-254); test: flow cytometry, FcγR+ HEK293 cells
T3 construct: whole, on cells; also called CD16 (V158 allele)
Protocol: as §1

[4] = target: T4, human PD-1 expressed on cells (human, UniProt Q15116 25-288); test: FACS on PD-1-expressing cells
T4 construct: whole, on cells; also called HuT78/PD-1; NK92MI/PD-1

[5] = target: T4, human PD-1 expressed on cells; test: FACS on PD-1-expressing cells; remark: listed apart in the source
[6] = target: P3Z chimeric PD-1 receptor (human); test: cell-based or functional assay
[7] = target: T4, human PD-1 expressed on cells; test: cell-based or functional assay
[8] = target: P3Z chimeric PD-1 receptor (human); test: cell-based or functional assay; remark: listed apart in the source
[9] = target: T4, human PD-1 expressed on cells; test: cell-based or functional assay; remark: listed apart in the source
[10] = target: P3Z chimeric PD-1 receptor (human); test: cell-based or functional assay; remark: listed apart in the source
[11] = target: T4, human PD-1 expressed on cells; test: cell-based or functional assay; remark: listed apart in the source
[12] = target: T4, human PD-1 expressed on cells; test: FACS on PD-1-expressing cells, goat anti-human IgG detection
[13] = target: T4, human PD-1 expressed on cells; test: cell-based or functional assay; remark: listed apart in the source
[14] = target: P3Z chimeric PD-1 receptor (human); test: cell-based or functional assay; remark: listed apart in the source
[15] = target: P3Z chimeric PD-1 receptor (human); test: cell-based or functional assay; remark: listed apart in the source
[16] = target: T4, human PD-1 expressed on cells; test: FACS on HuT78/PD-1 cells, MFI against Ab concentration (unit taken from the x axis, µg/ml)
Protocol: To block human Fc receptors, cells were pre-incubated with human IgG (20 μg/ml) (Cat. No. H11296, LifeHolder, USA and Shanghai, China).
Dose-dependent reaction curve of murine mAbs binding to human PD-1 expressed on live cells by FACS analyses. […] MFI stands for mean fluorescence intensity. HuT78/PD-1 cells were suspended in 96-well plate at 5 ×10^4 cells per well for FACS.

[17] = target: T4, human PD-1 expressed on cells; test: cell-based or functional assay; remark: listed apart in the source
[18] = target: T4, human PD-1 expressed on cells; test: cell-based or functional assay; remark: listed apart in the source
[19] = target: T4, human PD-1 expressed on cells; test: cell-based or functional assay; remark: listed apart in the source
[20] = target: T5, PD-1-EC/Fc (human, UniProt Q15116 21-168); test: SPR (BIAcore T-200), mAb captured on anti-mouse Fc chip, PD-1/Fc injected
T5 construct: AA 1-168 includes the signal peptide; Made in 293-F cells; also called PD-1/Fc
T5 sequence (Q15116 21-168 limits assumed): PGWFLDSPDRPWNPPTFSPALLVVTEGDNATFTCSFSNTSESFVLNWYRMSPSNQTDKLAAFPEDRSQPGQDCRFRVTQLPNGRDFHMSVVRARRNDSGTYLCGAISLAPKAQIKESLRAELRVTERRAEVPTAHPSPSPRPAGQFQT
Protocol: Anti-mouse Fc CM5 biosensor chip (GE Healthcare) was generated using a standard primary amine coupling protocol. […] Association rates (K_a or $kon$) and dissociation rates (K_d or $koff$) were calculated using the one-to-one Langmuir binding model (BIA Evaluation Software, GE Life Sciences). The equilibrium dissociation constant (K_D) was calculated as the ratio $koff/kon$.

T4 sequence (Q15116 25-288): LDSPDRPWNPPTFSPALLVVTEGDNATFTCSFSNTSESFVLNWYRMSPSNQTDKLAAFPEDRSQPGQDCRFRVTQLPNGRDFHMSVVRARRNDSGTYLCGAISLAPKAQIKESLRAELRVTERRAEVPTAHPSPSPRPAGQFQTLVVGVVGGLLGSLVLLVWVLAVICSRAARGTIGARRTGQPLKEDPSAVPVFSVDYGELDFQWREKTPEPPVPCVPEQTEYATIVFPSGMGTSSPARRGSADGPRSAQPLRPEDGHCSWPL
Chain of P3Z chimeric PD-1 receptor (human) (chain, as listed by the source mutant limits assumed): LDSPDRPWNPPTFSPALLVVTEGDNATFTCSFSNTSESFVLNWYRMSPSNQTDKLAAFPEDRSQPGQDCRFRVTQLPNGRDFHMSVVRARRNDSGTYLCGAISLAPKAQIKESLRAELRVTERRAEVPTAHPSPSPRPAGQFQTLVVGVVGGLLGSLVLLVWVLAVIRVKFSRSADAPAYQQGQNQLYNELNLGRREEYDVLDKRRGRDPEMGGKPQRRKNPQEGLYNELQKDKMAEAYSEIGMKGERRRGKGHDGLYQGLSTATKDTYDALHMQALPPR
T3 sequence (P08637 17-254 F176V limits assumed): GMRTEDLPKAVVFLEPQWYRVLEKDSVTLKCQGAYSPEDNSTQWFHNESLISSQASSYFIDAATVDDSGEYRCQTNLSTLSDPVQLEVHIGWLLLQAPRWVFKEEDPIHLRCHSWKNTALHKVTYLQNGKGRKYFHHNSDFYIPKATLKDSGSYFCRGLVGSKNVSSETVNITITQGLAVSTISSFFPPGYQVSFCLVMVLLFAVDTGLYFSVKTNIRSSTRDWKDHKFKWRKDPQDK
T2 sequence (P08637 17-254): as the sequence (P08637 17-254 F176V limits assumed) above, with V160F counted along it
T1 sequence (P12314 16-374): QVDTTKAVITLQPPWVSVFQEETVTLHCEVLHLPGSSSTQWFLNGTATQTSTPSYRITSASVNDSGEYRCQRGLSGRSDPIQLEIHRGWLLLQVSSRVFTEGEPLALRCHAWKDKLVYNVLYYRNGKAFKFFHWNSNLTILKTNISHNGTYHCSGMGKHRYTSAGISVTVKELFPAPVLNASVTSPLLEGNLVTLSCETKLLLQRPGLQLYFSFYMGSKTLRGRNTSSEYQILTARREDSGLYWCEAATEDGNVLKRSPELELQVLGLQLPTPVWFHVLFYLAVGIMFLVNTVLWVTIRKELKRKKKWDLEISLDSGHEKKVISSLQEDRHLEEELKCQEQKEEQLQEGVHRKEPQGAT

B1: hu317-4B6/IgG4mt10 (antibody)
heavy: QVQLQESGPGLVKPSETLSLTCTVSGFSLTSYGVHWIRQPPGKGLEWIGVIYADGSTNYNPSLKSRVTISKDTSKNQVSLKLSSVTAADTAVYYCARAYGNYWYIDVWGQGTTVTVSSASTKGPSVFPLAPCSRSTSESTAALGCLVKDYFPEPVTVSWNSGALTSGVHTFPAVLQSSGLYSLSSVVTVPSSSLGTKTYTCNVDHKPSNTKVDKRVESKYGPPCPPCPAPPVAGGPSVFLFPPKPKDTLMISRTPEVTCVVVAVSQEDPEVQFNWYVDGVEVHNAKTKPREEQFNSTYRVVSVLTVVHQDWLNGKEYKCKVSNKGLPSSIEKTISKAKGQPREPQVYTLPPSQEEMTKNQVSLTCLVKGFYPSDIAVEWESNGQPENNYKTTPPVLDSDGSFFLYSKLTVDKSRWQEGNVFSCSVMHEALHNHYTQKSLSLSLGK
VL: DIVMTQSPDSLAVSLGERATINCKSSESVSNDVAWYQQKPGQPPKLLINYAFHRFTGVPDRFSGSGYGTDFTLTISSLQAEDVAVYYCHQAYSSPYTFGQGTKLEIK
notes: Light chain constant region not restated for this format; copies: 2 + 2
binding result [1]: no binding | binding result [2]: no binding | binding result [3]: no binding

B3: ch317 (antibody, human IgG2, V domains shown, not shown: a dimerising Fc or GST)
VH: QVQLKESGPGLVAPSKNLSITCTVSGFSLTSYGVHWIRQPPGKGLEWLGVIWAGGSTNYNSALMSRLSISKDNSRSQVFLRMNSLQTDDTAMYYCARAYGNYWYIDVWGAGTTVTVSS
VL: DIVMTQTPKFLLVSAGDRVTITCKASQSVSNDVAWYQQKPGQSPKLLINYAFHRFTGVPDRFTGSGYGTDFIFTISTVQAEDLAVYFCHQAYSSPYTFGGGTKLEMKR
notes: domain: Ig kappa C-region; Murine VH and Vκ of mu317 on human IgG2 / kappa
Assay-2 IL-2 release, IC50 (HuT78/P3Z + HEK293/PD-L1) [10]: 0.1 µg/mL | Assay-2 IL-2 release, Max inhibition (HuT78/P3Z + HEK293/PD-L1) [10]: 99% | Assay-1 IL-2 release, EC50 (HuT78/PD-1 + HEK293/OS8/PD-L1) [11]: 0.08 µg/mL | Assay-1 IL-2 release, Top line (HuT78/PD-1 + HEK293/OS8/PD-L1) [11]: 294 pg/mL | EC50 [12]: 0.36 µg/mL

B5: murine mAb 326 (antibody, V domains shown)
VH: QIQLVQSGPELKKPGETVKISCKASGYTFTNYGMNWVKQAPGKGLKWMGWINNNNGEPTYAEEFKGRFAFSLETSASTAYLQINNLKNEDTATYFCARDVMDYWGQGTSVTVSS
VL: DIVLTQSPASLAVSLGQRATISCRASESVDNYGYSFMHWYQQKPGQPPQLLIYRASNLESGIPARFSGSGSRTGFTLTINPVEADDVATYYCQQSKEYPTFGGGTKLEVK
notes: Murine hybridoma antibody; also called mu326
IL-2 release, EC50 (HuT78/PD-1 + HEK293/OS8/PD-L1) [13]: 0.053 µg/mL | Inhibition of IL-2 secretion, IC50 (HuT78/P3Z + HEK293/PD-L1) [14]: 0.039 µ/ml | Inhibition of IL-2 secretion, IC50 (HuT78/P3Z + HEK293/PD-L2) [15]: 0.018 µg/mL | EC50 [16]: 0.126 µg/mL | IFN-γ secreted, EC50 (NK92MI/PD-1 + SK-MES-1/PD-L1) [17]: 0.2 µg/mL | Cytotoxicity of NK92MI/PD-1 cells against SK-MES-1/PD-L1, EC50 [18]: 0.37 µg/mL | EC50 [5]: 0.126 µg/mL | Top MFI [5]: 195 MFI | IL-2 release, EC50 (HuT78/PD-1 + HEK293/OS8/PD-L2) [19]: 0.038 µg/mL | Assay-2 IL-2 release, IC50 (HuT78/P3Z + HEK293/PD-L1) [6]: 0.14 µg/mL | Assay-2 IL-2 release, Max inhibition (HuT78/P3Z + HEK293/PD-L1) [6]: 96.9% | Assay-1 IL-2 release, EC50 (HuT78/PD-1 + HEK293/OS8/PD-L1) [7]: 0.038 µg/mL | Assay-1 IL-2 release, Top line (HuT78/PD-1 + HEK293/OS8/PD-L1) [7]: 1150 pg/mL | Kd [20]: 0.324 nM | koff [20]: 7.79e-05 s⁻¹ | kon [20]: 240000 M⁻¹ s⁻¹

The remaining lines, values ahead:

EC50 [4]: 0.118 µg/mL | EC50 [5]: 0.072 µg/mL | Top MFI [5]: 163 MFI | Assay-2 IL-2 release, IC50 (HuT78/P3Z + HEK293/PD-L1) [6]: 0.12 µg/mL | Assay-2 IL-2 release, Max inhibition (HuT78/P3Z + HEK293/PD-L1) [6]: 81% | Assay-1 IL-2 release, EC50 (HuT78/PD-1 + HEK293/OS8/PD-L1) [7]: 0.074 µg/mL | Assay-1 IL-2 release, Top line (HuT78/PD-1 + HEK293/OS8/PD-L1) [7]: 1060 pg/mL | IL-2 release in HuT78/P3Z, IC50 [8]: 0.074 µg/mL | IL-2 release in HuT78/P3Z, Max inhibition [8]: 93% | IL-2 release in HuT78/PD-1, EC50 [9]: 0.135 µg/mL | IL-2 release in HuT78/PD-1, Top line [9]: 993 pg/mL
B2: ch326 (antibody, human IgG2, V domains shown, not shown: a dimerising Fc or GST)
VH: B5 VH
VL: DIVLTQSPASLAVSLGQRATISCRASESVDNYGYSFMHWYQQKPGQPPQLLIYRASNLESGIPARFSGSGSRTGFTLTINPVEADDVATYYCQQSKEYPTFGGGTKLEVKR
notes: domain: Ig kappa C-region; Murine VH and Vκ of mu326 on human IgG2 / kappa

EC50 [4]: 0.11 µg/mL | IL-2 release in HuT78/P3Z, IC50 [8]: 0.093 µg/mL | IL-2 release in HuT78/P3Z, Max inhibition [8]: 95.6% | IL-2 release in HuT78/PD-1, EC50 [9]: 0.104 µg/mL | IL-2 release in HuT78/PD-1, Top line [9]: 932 pg/mL
B4: hu326-2 S85N (antibody, V domains shown)
VH: QVQLVQSGSELKKPGASVKVSCKASGYTFTNYGMNWVRQAPGQGLEWMGWINNNNGEPTYAQGFRGRFVFSLDTSASTAYLQISNLKTEDTAVYFCARDVMDYWGQGTTVTVSS
VL: B5 VL with L15P, S22T, Q49K, I62V, G74D, D85N, V87T, T89N, L107V, V109I
notes: mAb; constant regions not restated (hu326-1 is IgG2 / kappa); Back mutation to murine
